One may read the IC50 as the concentration that inhibits the measured activity by half. As usually defined, the Kd is the equilibrium constant for the complex coming apart. As a reminder, the Ki is a dissociation constant, usually derived from enzyme kinetics or from competition with a known ligand. Lower therefore signals a stronger hold on the target.

The target of series [1] is T1, KGF (hKGF) (Homo sapiens, UniProt P21781 P21781:32-194).
T1 sequence: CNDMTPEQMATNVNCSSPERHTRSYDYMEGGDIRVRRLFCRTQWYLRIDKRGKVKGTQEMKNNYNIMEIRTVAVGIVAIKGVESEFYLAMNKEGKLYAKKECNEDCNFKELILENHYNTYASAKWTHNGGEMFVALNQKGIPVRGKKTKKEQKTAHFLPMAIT
Kind of series: filter; equimolar halves; high -, low -. To be noted: tags: Upstate Biotechnology. Here is the method:
In an effort to identify shorter KGF ligands that retained binding, the binding activity of various deletions of the shortest truncate of ligand 14F, namely 14F3′T were tested. Deletions were tested in all the structural elements of the proposed pseudoknot structure. RNA transcripts containing 2′F pyrimidines and 2′OH purines were obtained by in vitro transcription using synthetic DNA templates. The activity of each ligand is shown by scoring for both the high (H) and low (L) affinity component of the 14F3′T binding curve with +(active) or −(not active). Truncates T35 and T36 represent two complementary halves of 14F3′T molecule and were additionally tested as an equimolar mixture. The structural elements of the proposed pseudoknot structure are separated by (1) and are indicated by symbols S1 (stem 1), S2 (stem 2), L1 (loop 1) and L3 (loop 3). The proposed pseudoknot structure for 14F3′T is a non-H-type pseudoknot and lacks L2 (loop 2). The complementary sequences forming S1 (S1 and S1′) and S2 (S2 and S2′) are marked by single and double underlines respectfully. In the tabulated sequences, deleted bases were replaced with periods (.). […] Deletions in loop 3 (L3), however, were tolerated as long as one copy of the RRYY box remained intact. The shortest ligand that retained activity is T22 which is a 43-mer. […]

The target in series [2] is T2, bFGF (Example 20) (UniProt P09038 P09038:143-288). Kind of series: parent SELEX ligand.
T2 sequence (P09038 143-288, one chain of several): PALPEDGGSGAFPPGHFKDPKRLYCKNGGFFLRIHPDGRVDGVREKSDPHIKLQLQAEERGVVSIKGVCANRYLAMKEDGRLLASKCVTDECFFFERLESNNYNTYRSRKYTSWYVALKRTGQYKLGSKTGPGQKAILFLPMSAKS
The target of series [3] is T1, KGF (hKGF). Kind of series: competition; PC-3 cells. The note with it: tags: Upstate Biotechnology. Here is the method:
(§1) PC-3 cells were plated in 24-well plates at about 10⁵ cells per well. Following growth for […], the cells were serum starved for 24 hours, washed two times with 500 μl of cold DPBS, and then incubated with 500 μl binding buffer (BB1; DPBS, 0.5 mM MgCl₂, 0.2% BSA. 0.02% sodium azide) containing various concentrations of ¹²⁵I-labeled KGF ranging from 0 to 0.8 nM. Following 3-3.5 hour incubation at 4° C., the binding mixes were aspirated and the well-adhered cells were washed two times with 1 ml BB1 and once with 1 ml BB1 supplemented with 0.5M NaCl. The remaining bound labeled hKGF was solubilized in 600 μl 0.5% SDS/0.1M NaOH and counted in a gamma counter (Beckmann). Nonspecific binding was determined in the presence of 100 fold molar excess of unlabeled hKGF. For competition assays, the labeled hKGF was kept constant at […], and varying concentrations of competitor molecules were included in the binding reactions ranging from 0-1,000 nM. Binding curves were fitted to the equation: […]
(§2) A subset of these ligands was tested on the NIH3T3/FGFR-2. In determining the Ki values, it was assumed that 3T3 cells have 500,000 binding sites per cell and PC-3 cells have 5,000 binding sites per cell.

For series [4], the target named is T1, KGF (hKGF). In words: filter; biphasic, high affinity 33%. To be noted: tags: Upstate Biotechnology; label: 32P.
Series [5] deals with T3, PDGF-AB (Homo sapiens, UniProt P04085;P01127 P04085:87-211,P01127:82-190). Kind of series: filter; substitution pattern compatible with high affinity. To be noted: tags: R&D Systems, E. coli; chain copies: A/B chain dimer; three-way helix junction.
T3 sequence (P01127 82-190, chain 2 of 2, other chains not shown): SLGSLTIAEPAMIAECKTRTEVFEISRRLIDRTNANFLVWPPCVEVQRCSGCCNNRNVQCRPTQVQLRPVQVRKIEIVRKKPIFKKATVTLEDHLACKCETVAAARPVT
Series [6] has as its target T3, PDGF-AB. Kind of series: filter; specificity control; random RNA 22.0 nM. The note with it: tags: R&D Systems, E. coli; label: 32P; pseudoknot (predicted).
Series [7] concerns the target T1, KGF (hKGF). In words: cell_activity; Balb/MK mitogenic assay. To be noted: tags: Upstate Biotechnology; pseudoknot.
Procedure: (§3) Balb/MK cells grown in Low Ca⁺⁺ EMEM with 10% FCS (dialyzed and heat inactivated) and 5 ng/ml rhEGF were trypsinized and resuspended in Low Ca⁺⁺ EMEM with 1% FCS (dialyzed and heat inactivated) and 0.5 ng/ml rhEGF and plated on 96 well fibronectin coated culture plates at 4-6×10⁴ cells per well in 100 μl total volume. Following overnight growth, the medium was replaced with Low Ca⁺⁺ EMEM without FCS or rhEGF and serum starved for about 30 hrs. […] Following over-night incubation, ³H-thymidine was added at 0.2 μCi/well and incubation continued for an additional 7-8 hrs. The extent of ³H-thymidine incorporation was determined by TCA precipitation and filtration through GFC filter disks.
The target in series [8] is T4, KGF (rat) (Rattus norvegicus, UniProt Q02195 Q02195:32-194).
T4 sequence: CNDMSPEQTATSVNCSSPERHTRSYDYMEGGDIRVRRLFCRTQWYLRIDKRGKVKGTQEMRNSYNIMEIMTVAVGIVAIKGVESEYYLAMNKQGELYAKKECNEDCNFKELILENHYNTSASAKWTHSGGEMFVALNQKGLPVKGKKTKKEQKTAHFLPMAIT
In words: cell_activity; Balb/MK DNA synthesis. The note with it: tags: QED Advanced Research Technologies; pseudoknot.
Procedure: as §3

Series [9] addresses T4, KGF (rat). In words: filter; high affinity component; Kd2 70.0 nM. The note with it: tags: QED Advanced Research Technologies; label: 32P; pseudoknot (predicted).
The target of another series is EGF (Homo sapiens, UniProt P01133 P01133:971-1023). In words: filter; specificity control; random RNA 2000 nM. The note with it: tags: Upstate Biotechnology; label: 32P; pseudoknot (predicted).
Chain of EGF (P01133 971-1023, one chain of several): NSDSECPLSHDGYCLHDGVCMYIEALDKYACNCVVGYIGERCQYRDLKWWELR
The target in the next series is bFGF (Homo sapiens, UniProt P09038 P09038:143-288). Kind of series: filter; specificity control; random RNA 0.0375 and 10.3 nM. The note with it: tags: R&D Systems; label: 32P; pseudoknot (predicted).
Chain of bFGF (P09038 143-288, one chain of several): as the sequence (P09038 143-288, one chain of several) above
The target of series [10] is T5, TGFβ1 (Homo sapiens, UniProt P01137 P01137:279-390). Kind of series: filter; specificity control; random RNA 10.4 nM. The note with it: tags: Genentech; biotinylated version used in bead assay; chain copies: 2; label: 32P; pseudoknot (predicted).
T5 sequence (P01137 279-390, one chain of several): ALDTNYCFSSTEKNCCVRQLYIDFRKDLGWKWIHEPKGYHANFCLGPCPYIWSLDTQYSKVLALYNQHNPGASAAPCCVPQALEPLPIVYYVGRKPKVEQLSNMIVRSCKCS
The target of series [11] is T1, KGF (hKGF). Kind of series: competition; PC-3 cells; 10.6 nM partial on NIH3T3/FGFR-2. The note with it: tags: Upstate Biotechnology. How it is done:
as §1, §2

Series [12] deals with T1, KGF (hKGF). In words: filter; DPBS, 37 C; PC-3 Ki […] nM. The note with it: tags: Upstate Biotechnology; label: 32P.
The target in series [13] is T5, TGFβ1. Kind of series: filter; 3' boundary experiment. To be noted: tags: Genentech or R&D Systems; chain copies: 2.
Series [14] addresses T1, KGF (hKGF). In words: filter; biphasic, high affinity 43%; Kd2 2.55 nM. To be noted: tags: Upstate Biotechnology; label: 32P.
Series [15] has as its target T2, bFGF (Example 20). In words: truncated ligand from deletion analysis.
Series [16] has as its target T3, PDGF-AB. In words: efficient photo-crosslinking at 308 nm, to Phe84 of B chain. The note with it: tags: R&D Systems, E. coli; chain copies: A/B chain dimer.
Series [17] addresses T1, KGF (hKGF). In words: filter; biphasic, high affinity 25-44%; text p221 gives 0.3-3 pM and 2-10 nM; PC-3 Ki 0.2 nM. The note with it: tags: Upstate Biotechnology; label: 32P; pseudoknot (predicted).
Series [18] deals with T1, KGF (hKGF). Kind of series: competition; PC-3 cells; 2.7 nM on NIH3T3/FGFR-2; 92 pM Balb/MK. To be noted: tags: Upstate Biotechnology; pseudoknot. How it is done:
as §1, §2

Series [19] addresses T1, KGF (hKGF). In words: filter; biphasic, high affinity 37%; Kd2 3.25 nM; PC-3 Ki 0.16 nM. To be noted: tags: Upstate Biotechnology; label: 32P; pseudoknot (predicted).
The target in series [20] is T1, KGF (hKGF). Kind of series: competition; PC-3 cells; 6.8 nM on NIH3T3/FGFR-2; 830 pM Balb/MK. To be noted: tags: Upstate Biotechnology; pseudoknot. How it is done:
as §1, §2

The next series concerns the target PDGF-BB (Homo sapiens, UniProt P01127 P01127:82-190). Kind of series: competition; PDGF alpha-receptor PAE cells, 4 C; mitogenic half-maximal 2.5 nM. To be noted: tags: R&D Systems, E. coli; chain copies: B chain dimer; three-way helix junction.
Series [21] concerns the target T1, KGF (hKGF). Kind of series: filter; second value 8.70 nM. To be noted: tags: Upstate Biotechnology; label: 32P.

Chain of PDGF-BB (P01127 82-190, one chain of several): as the sequence (P01127 82-190, chain 2 of 2, other chains not shown) above

B1: T35/T36 equimolar (ssRNA)
RNA 1: GGUGGUCUCCCAAUUCUAUUCUCCAUCGUAUC
RNA 2: GGGAGGACGAUG
modifications: 2'-F pyrimidines
On to B1, for which, in the series with KGF (hKGF) [1], the binding result was “no binding”.

B2: 21A (ssRNA)
RNA: GGGAGACAAGAAUAACGCUCAAGUAGACUAAUGUGUGGAAGACAGCGGGUGGUUCGACAGGAGGCUCACAACAGGC
modifications: 2'-NH2 pyrimidines
Regarding B2, in the series with bFGF (Example 20) [2], the binding result was “binds”.

B3: 15F (ssRNA)
RNA: GGGAGGACGAUGCGGUCAUGGUGUCUUUCCACAGCUCUUCCCAUGAUCGCCCGGCCAGACGACUCGCCCGA
modifications: 2'-F pyrimidines
As for B3, in the series with KGF (hKGF) [3], the IC50 is 20 nM. In the series with KGF (hKGF) [4], this molecule yielded a Kd of 0.07 nM.

B4: 36t 2'-OMe/2'-F (mixed)
mixed: CAGGCUACGGCACGTAGAGCAUCACCATGATCCUG
modifications: 2'-OMe C8,C11,C25,C26,G9,G10,G17,G19,G35,A12,A24,A27,U34; 2'-F U6,U22,C23,C32,C33; 3'-3' idT
With B4, the binding result with PDGF-AB [5] is recorded as “binds”.

GGGAGGACGAUGCGGUGGUCUCCCAAUUCUAAACUUUCUCCAUCGUAUC (ssRNA, 2'-F pyrimidines) [14F3'T]: the Kd with PDGF-AB [6] is 50 nM; in the series with KGF (rat) [9] it was 0.0041 nM; with EGF it was 256 nM; with bFGF, 10 nM; with TGFβ1 [10] it was 98 nM. The Ki in the series with KGF (hKGF) [7] was 0.034 nM; with KGF (rat) [8], 1.8 nM.

B5: 14N (ssRNA)
RNA: GGGAGGACGAUGCGGUCCAGGGAUUGAAGUGUCGGGGUAGGAACAUAAAGGCGGCCAGACGACUCGCCCGA
modifications: 2'-NH2 pyrimidines
Consider B5, for which the IC50 with KGF (hKGF) [3] was 6 nM. The affinity with KGF (hKGF) [11] corresponds to a Ki of 1.4 nM. The molecule further gave a Kd with KGF (hKGF) [12] of 0.44 nM.

B6: lib4-32 boundary (ssRNA)
RNA: GGGGGAGAACGCGGAUCCGGCAACCCCAGGCGCAUAGCUUCCGAGUAGACAGGCGGGAGGGGUGGAUGUGGCGUCACG
modifications: modified pyrimidines
B6: the binding result in the series with TGFβ1 [13] is listed as “binds”.

B7: 26F (ssRNA)
RNA: GGGAGGACGAUGCGGUCAAGCUUAACAGUCUGGCAAUGGCCAUUAUGGCGCCCCAGACGACUCGCCCGA
modifications: 2'-F pyrimidines
In the series with KGF (hKGF) [14], B7 had a Kd of 0.23 nM. As for GGUGUGUGGAAGACAGCGGGUGGUUC (ssRNA, 2'-NH2 pyrimidines) [21A-t], in the series with bFGF (Example 20) [15], the binding result is listed as “binds”.

For the molecule TGGGAGGGCGCGTTCTTCGTGGTTACTTTTAGTCCCG (ssDNA, 5-iodo-dU at 24) [20t-I4], the binding result with PDGF-AB [16] was “binds”.

B8: 14F (ssRNA)
RNA: GGGAGGACGAUGCGGUGGUCUCCCAAUUCUAAACUUUCUCCAUCGUAUCUGGGCCAGACGACUCGCCCGA
modifications: 2'-F pyrimidines
In the series with KGF (hKGF) [3] (pseudoknot), B8 returned an IC50 of 10 nM. Besides, the Kd in the series with KGF (hKGF) [17] was 0.0134 nM. Also, in the series with KGF (hKGF) [18], the affinity corresponds to a Ki of 0.2 nM.

B9: 6F (ssRNA)
RNA: GGGAGGACGAUGCGGGAUCCUUUGUGGGCUCUUGUUGACCCCCUCGUUGUCCCCCCCAGACGACUCGCCCGA
modifications: 2'-F pyrimidines
B9 showed an IC50 with KGF (hKGF) [3] (pseudoknot) of 4 nM. Moreover, in the series with KGF (hKGF) [19], the Kd was 0.05 nM. The molecule further registered a Ki with KGF (hKGF) [20] of 0.16 nM. In the case of CACAGGCTACGGCACGTAGAGCATCACCATGATCCTGTGT (ssDNA, 3'-3' idT) [36t], in the series with PDGF-BB, the IC50 was roughly 1 nM.

B10: 20F (ssRNA)
RNA: GGGAGGACGAUGCGGAGUAUUCCAGCCUGGAUUCAUAGUCAGUGCUCUCCGUGCCCAGACGACUCGCCCGA
modifications: 2'-F pyrimidines
In the series with KGF (hKGF) [21], B10 returned a Kd of 2.05 nM.

These data come from patent publication US20030180744, “High affinity oligonucleotide ligands to growth factors” (GILEAD SCIENCES, INC., published 2003).
